The record followed here is FireProtDB (doi:10.1021/bi00197a024).

The conditions of this data set: Saccharomyces cerevisiae (strain ATCC 204508 / S288c), Thermal, DSC, Sodium phosphate 0.1 M, reversible: yes.

Chain of Cytochrome c isoform 1 C108A, P00044 (P00044 whole entry C108A, canonical isoform): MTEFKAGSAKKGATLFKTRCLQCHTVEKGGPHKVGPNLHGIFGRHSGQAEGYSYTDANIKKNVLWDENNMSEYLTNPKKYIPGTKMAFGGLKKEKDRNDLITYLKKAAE
Chain of Cytochrome c isoform 1 wild type, P00044 (P00044 whole entry, canonical isoform): as the sequence (P00044 whole entry C108A, canonical isoform) above, with A108C counted along it

As a reminder, the Tm is the temperature at which the thermal transition is half complete. On to Cytochrome c isoform 1 C108A, P00044, for which, under “pH 5, structure 1YCC”, the Tm was 55.5 °C, the “unfolding enthalpy (calorimetric)” value was found to be 68.9 kcal/mol and the “unfolding enthalpy (van 't Hoff)” value was determined as 99.2 kcal/mol. Under “pH 6, structure 1YCC”, the Tm turned out to be 56.2 °C, the “unfolding enthalpy (calorimetric)” value was determined as 69.9 kcal/mol and the “unfolding enthalpy (van 't Hoff)” value was 104 kcal/mol.
Regarding “Cytochrome c isoform 1 wild type, P00044”, under “pH 5”, the Tm came to 47.4 °C, the “unfolding enthalpy (calorimetric)” value is 58.3 kcal/mol and the “unfolding enthalpy (van 't Hoff)” value was 82.2 kcal/mol. For the setting “pH 6”, the melting temperature (Tm) was found to be 50.7 °C, the “unfolding enthalpy (calorimetric)” value came to 64.5 kcal/mol and the “unfolding enthalpy (van 't Hoff)” value was found to be 92.2 kcal/mol.
